# Measurements: paper PMC8219780, “The MLKL kinase-like domain dimerization is an indispensable step of mammalian MLKL activation in necroptosis signaling” (Cell Death & Disease, 2021)
# Key:
# [1] = target: Flag-tagged mouse MLKL kinase-like domain, phosphomimic mutant S345D, expressed in HEK293T (mouse) (UniProt Q9D2Y4); assay: cross-linking; whole-cell lysates of HEK293T cells expressing Flag-tagged MLKL KLD proteins (24 h); 500 uM DSG 30 min; SDS-PAGE, western blot anti-Flag
# [2] = target: human MLKL kinase-like domain, phosphor-sites' mutant T357A/S358A (179~471 aa), recombinant (human) (UniProt Q8NB16); assay: cross-linking; purified recombinant MLKL KLD proteins with 500 uM DSG, 30 min, room temperature; stopped with 100 mM Tris-HCl pH 7.5; SDS-PAGE, Coomassie
# [3] = target: Flag-tagged human MLKL kinase-like domain, phosphomimic mutant T357ES358D, expressed in HEK293T (human); assay: cross-linking; whole-cell lysates of HEK293T cells expressing Flag-tagged MLKL KLD proteins (24 h); 500 uM DSG 30 min; SDS-PAGE, western blot anti-Flag
# [4] = target: the molecule itself; assay: SEC; gel filtration of purified recombinant human MLKL KLD proteins on Superdex 75; fractions on SDS-PAGE, Coomassie; standards BSA 67 kDa, ovalbumin 44 kDa, ribonuclease A 14 kDa
# [5] = target: the molecule itself; assay: cross-linking; purified recombinant MLKL KLD proteins with 500 uM DSG, 30 min, room temperature; stopped with 100 mM Tris-HCl pH 7.5; SDS-PAGE, Coomassie
# [6] = target: the molecule itself; assay: SEC; gel filtration of purified His-Sumo tagged human MLKL (126~181 aa) on Superdex 200; fractions on SDS-PAGE, Coomassie
molecule,measurement,setting,value
"Flag-tagged mouse MLKL kinase-like domain, phosphomimic mutant S345D, expressed in HEK293T (from UniProt Q9D2Y4 192-456) (domain or fragment)",stoichiometry N,[1],2
"human MLKL kinase-like domain, phosphor-sites' mutant T357A/S358A (179~471 aa), recombinant (from UniProt Q8NB16 179-471) (domain or fragment)",stoichiometry N,[2],2
"Flag-tagged human MLKL kinase-like domain, phosphomimic mutant T357ES358D, expressed in HEK293T (domain or fragment)",stoichiometry N,[3],2
"human MLKL kinase-like domain, phosphomimic mutant T357E/S358D (179~471 aa), recombinant (domain or fragment, UniProt Q8NB16 179-471, looked up, Mixed lineage kinase domain-like protein (MLKL), human, kinase-like domain, residues 179-471, T357E/S358D; GST removed with HRV3C protease; residues of the site may remain at the N-terminus; source: Sf9 insect cells (baculovirus), purified (Glutathione Sepharose 4B, on-column HRV3C digestion, Superdex 75 or 200); not shown: GST, N-terminal, cleaved) YLPPKCMQEIPQEQIKEIKKEQLSGSPWILLRENEVSTLYKGEYHRAPVAIKVFKKLQAGSIAIVRQTFNKEIKTMKKFESPNILRIFGICIDETVTPPQFSIVMEYCELGTLRELLDREKDLTLGKRMVLVLGAARGLYRLHHSEAPELHGKIRSSNFLVTQGYQVKLAGFELRKTQEDMSLGTTREKTDRVKSTAYLSPQELEDVFYQYDVKSEIYSFGIVLWEIATGDIPFQGCNSEKIRKLVAVKRQQEPLGEDCPSELREIIDECRAHDPSVRPSVDEILKKLSTFSK",stoichiometry N,[4],2
"human MLKL kinase-like domain, wild-type (179~471 aa), recombinant (domain or fragment, UniProt Q8NB16 179-471, looked up, Mixed lineage kinase domain-like protein (MLKL), human, kinase-like domain, residues 179-471; residues of the site may remain at the N-terminus; also called MLKL KLD; WT; source: Sf9 insect cells (baculovirus), purified (Glutathione Sepharose 4B, on-column HRV3C digestion, Superdex 75 or 200); not shown: GST, N-terminal, cleaved) YLPPKCMQEIPQEQIKEIKKEQLSGSPWILLRENEVSTLYKGEYHRAPVAIKVFKKLQAGSIAIVRQTFNKEIKTMKKFESPNILRIFGICIDETVTPPQFSIVMEYCELGTLRELLDREKDLTLGKRMVLVLGAARGLYRLHHSEAPELHGKIRSSNFLVTQGYQVKLAGFELRKTQTSMSLGTTREKTDRVKSTAYLSPQELEDVFYQYDVKSEIYSFGIVLWEIATGDIPFQGCNSEKIRKLVAVKRQQEPLGEDCPSELREIIDECRAHDPSVRPSVDEILKKLSTFSK",stoichiometry N,[5],2
"His-Sumo tagged human MLKL (126~181 aa), internal coiled-coil region, wild-type (domain or fragment, UniProt Q8NB16 126-181, looked up, Vector PET-SUMO; also called internal coiled-coil in brace region; source: E. coli BL21(DE3), purified (NTA resin, Superdex 200)) PISQGASWAQEDQQDADEDRRAFQMLRRDNEKIEASLRRLEINMKEIKETLRQYLP",binding result,[6],binds
